Where “and” joins values, the source holds several entries; their conditions need not be identical. Equal entries are not always repeated. One block for each binder: values may come before it.
Assays:
Human GDNF = biological target: T1, Human GDNF (human, UniProt P39905 78-211); experiment: Octet BLI, IgG, avid
T1 sequence (looked up): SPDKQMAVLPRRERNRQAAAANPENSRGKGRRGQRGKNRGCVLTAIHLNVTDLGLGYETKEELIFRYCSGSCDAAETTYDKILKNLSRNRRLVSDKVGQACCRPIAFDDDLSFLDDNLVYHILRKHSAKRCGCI

BMP9 = biological target: T2, BMP9 (UniProt Q9UK05 320-429); experiment: Octet BLI, IgG, avid
T2 sequence (looked up): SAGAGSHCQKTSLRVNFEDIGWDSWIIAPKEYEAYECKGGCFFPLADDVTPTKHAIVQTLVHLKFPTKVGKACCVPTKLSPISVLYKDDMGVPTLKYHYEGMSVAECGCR

BMP10 = biological target: T3, BMP10 (UniProt O95393 317-424); experiment: Octet BLI, IgG, avid
T3 sequence (looked up): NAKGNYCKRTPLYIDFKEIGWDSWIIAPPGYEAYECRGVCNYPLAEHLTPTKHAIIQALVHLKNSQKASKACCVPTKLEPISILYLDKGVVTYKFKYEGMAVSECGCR

Activin B = biological target: T4, Activin B (UniProt P09529 293-407); experiment: Octet BLI, IgG, avid
T4 sequence (looked up): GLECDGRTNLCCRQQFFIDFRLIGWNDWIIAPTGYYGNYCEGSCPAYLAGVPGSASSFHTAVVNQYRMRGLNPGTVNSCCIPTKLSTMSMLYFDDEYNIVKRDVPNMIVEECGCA

GDF15 Fc = biological target: T5, GDF15 Fc (UniProt Q99988 197-308, limits assumed); experiment: Octet BLI, IgG, avid
T5 construct: not shown: Fc part
T5 sequence (looked up): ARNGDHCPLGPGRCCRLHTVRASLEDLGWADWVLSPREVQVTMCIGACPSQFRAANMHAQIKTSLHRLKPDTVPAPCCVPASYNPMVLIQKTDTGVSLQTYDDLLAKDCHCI

Human GDF8 = Human GDF8 (human, UniProt O14793 267-375); experiment: Octet BLI, IgG, avid
Human GDF11 = Human GDF11 (human, UniProt O95390 299-407); experiment: Octet BLI, IgG, avid
Human GDF11, sequence (O95390 299-407 limits assumed): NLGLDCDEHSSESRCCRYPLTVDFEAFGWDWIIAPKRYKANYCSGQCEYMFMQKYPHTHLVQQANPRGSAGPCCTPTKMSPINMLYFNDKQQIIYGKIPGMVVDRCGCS

Human GDF10 = biological target: T6, Human GDF10 (human, UniProt P55107 369-478); experiment: Octet BLI, IgG, avid
T6 sequence (looked up): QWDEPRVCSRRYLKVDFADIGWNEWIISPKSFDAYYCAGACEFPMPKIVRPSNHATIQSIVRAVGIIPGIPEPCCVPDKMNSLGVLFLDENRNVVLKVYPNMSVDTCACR

Human Activin B Fc [1] = biological target: T7, Human Activin B Fc (human, UniProt P09529 293-407, limits assumed); experiment: KD with 0.1% HSA, method not stated
T7 construct: not shown: Fc part
T7 sequence (looked up): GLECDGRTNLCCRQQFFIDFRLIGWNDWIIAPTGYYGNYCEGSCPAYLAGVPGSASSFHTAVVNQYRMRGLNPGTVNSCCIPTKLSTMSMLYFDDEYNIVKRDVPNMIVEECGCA

Human Activin A Fc [2] = biological target: T8, Human Activin A Fc (human, UniProt P03970 309-424 (pig entry)); experiment: KD with 0.1% HSA, method not stated
T8 construct: also called human Activin A-Fc fusion; human Activin A-Fc antigen; not shown: Fc part
T8 sequence: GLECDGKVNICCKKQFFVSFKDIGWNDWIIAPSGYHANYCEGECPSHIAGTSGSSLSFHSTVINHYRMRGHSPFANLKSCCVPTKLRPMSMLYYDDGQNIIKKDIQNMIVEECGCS

Human GDF-11 Fc [3] = biological target: T9, Human GDF-11 Fc (human, UniProt O95390 299-407, limits assumed); experiment: KD with 0.1% HSA, method not stated
T9 construct: not shown: Fc part
T9 sequence (O95390 299-407 limits assumed): as the sequence (O95390 299-407 limits assumed) above

Human Activin B Fc [4] = biological target: T7, Human Activin B Fc; experiment: KD with 0.1% BSA, method not stated
Human GDF-11 Fc [5] = biological target: T9, Human GDF-11 Fc; experiment: KD with 0.1% BSA, method not stated
Human Activin A Fc [6] = biological target: T8, Human Activin A Fc; experiment: KD with 0.1% BSA, method not stated; with 0.1% BSA
Human Activin B Fc [7] = biological target: T7, Human Activin B Fc; experiment: KD with 5% HSA, method not stated
Human Activin A Fc [8] = biological target: T8, Human Activin A Fc; experiment: KD with 5% HSA, method not stated
Human Activin A Fc [9] = biological target: T8, Human Activin A Fc; experiment: Octet BLI, IgG, avid
Protocol: ForteBio affinity measurements were performed on an Octet HTX generally as previously described (see, e.g., Estep et al, Mabs 5(2), 270-278 (2013)). Briefly, ForteBio affinity measurements were performed by loading IgGs on-line onto AHC sensors. Sensors were equilibrated off-line in assay buffer for 30 min and then monitored on-line for 60 seconds for baseline establishment. Sensors with loaded IgGs were exposed to 100 nM antigen for 3 minutes, and afterwards were transferred to assay buffer for 3 min for off-rate measurement. All kinetics were analyzed using the 1:1 binding model.
Binding affinity and epitope binning assays were performed with a ForteBio instrument as described herein.

[10] = biological target: T10, biotinylated Human Activin A (human, UniProt P03970 309-424 (pig entry), biotinylated (EZ-Link Sulfo-NHS-Biotinylation Kit)); experiment: SPR (Biacore 8K), antigen captured, Fab analyte; second, unlabelled row under Clone B (Rmax 38.1)
T10 sequence: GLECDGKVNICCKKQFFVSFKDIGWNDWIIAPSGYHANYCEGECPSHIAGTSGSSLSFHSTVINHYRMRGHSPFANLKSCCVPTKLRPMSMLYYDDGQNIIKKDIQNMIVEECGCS
Protocol: (§1) Kinetic analysis was conducted at 25° C. in HBS-EP+ running buffer (10 mM HEPES pH 7.4, 150 mM NaCl, 3 mM EDTA, 0.05% Surfactant P20) using a Biacore 8K optical biosensor (Cytiva, Marlborough, MA). The sample compartment was maintained at 10° C. for the duration of the experiment. The Biacore 8K can analyze up to 8 separate interactions in a single cycle.
Each experiment cycle began with an injection (300 s at 2 μL/min) overflow cells 1 and 2 of a 1:100 solution of biotin CAPture reagent (Cytiva) in running buffer. This was followed by an injection (45 s at 10.0 μL/min) of biotinylated human ACTIVIN A (5 nM) overflow cell 2. Upon capture of ACTIVIN A to the sensor surface, a single concentration of Fab ranging from 0.111-81.0 nM was injected (300 s at 30 μL/min) overflow cells 1 and 2. The dissociation of the antibodies were monitored for 3420 s. […] Several blank buffer samples were injected (300 s at 30 μL/min) overflow cells 1 and 2 throughout the duration of the experiment and used for reference surface subtraction—each were monitored for the same amount of dissociation time (3420 s) and regenerated under the same conditions as those for the Fab sample injections.
(§2) The anti-Activin antibodies identified in Example 1 were characterized. First, binding kinetics of the anti-Activin antibodies was assessed with a Surface Plasmon Resonance assay (Biacore).

Human Activin A Fc [11] = biological target: T8, Human Activin A Fc; experiment: Octet BLI, Fab, monovalent
[12] = biological target: T10, biotinylated Human Activin A; experiment: SPR (Biacore 8K), antigen captured, Fab analyte
Protocol: as §1
Each experiment cycle began with an injection (300 s at 2 μL/min) overflow cells 1 and 2 of a 1:100 solution of biotin CAPture reagent (Cytiva) in running buffer. This was followed by an injection (45 s at 10.0 μL/min) of biotinylated human ACTIVIN A (5 nM) overflow cell 2. Upon capture of ACTIVIN A to the sensor surface, a single concentration of Fab ranging from 0.111-81.0 nM was injected (300 s at 30 μL/min) overflow cells 1 and 2. The dissociation of the antibodies were monitored for 3420 s. Finally, an injection (120 s at 10 μL/min) of regeneration solution (6 M Guanidine-HCl in 0.25 M NaOH) overflow cells 1 and 2 prepared the sensor surface for another cycle. Several blank buffer samples were injected (300 s at 30 μL/min) overflow cells 1 and 2 throughout the duration of the experiment and used for reference surface subtraction—each were monitored for the same amount of dissociation time (3420 s) and regenerated under the same conditions as those for the Fab sample injections.
as §2

binding result (Human GDNF): no binding (tested: 100 nM antigen)
binding result (BMP9): no binding (tested: 100 nM antigen)
binding result (BMP10): no binding (tested: 100 nM antigen)
Kd (Activin B): 46.8 nM
binding result (GDF15 Fc): no binding (tested: 100 nM antigen)
binding result (Human GDF8): no binding (tested: 100 nM antigen)
Kd (Human GDF11): 21 nM
binding result (Human GDF10): no binding (tested: 100 nM antigen)
Kd (Human Activin B Fc [1]): 2.96 nM
Kd (Human Activin A Fc [2]): 0.138 nM
Kd (Human GDF-11 Fc [3]): 18.3 nM
Kd (Human Activin B Fc [4]): 3.37 nM
Kd (Human GDF-11 Fc [5]): 18.9 nM
Kd (Human Activin A Fc [6]): 0.138 nM
Kd (Human Activin B Fc [7]): 10 nM
Kd (Human Activin A Fc [8]): 0.217 nM
Kd (Human Activin A Fc [9]): 0.527 nM
B1: anti-Activin A antibody Clone B (IgG) (antibody, V domains shown)
VH: QVQLVQSGAEVKKPGASVKVSCKASGYTFIGYDMHWVRQAPGQGLEWMGVINPSSGGTNYAQKFQGRVTMTRDTSISTAYMELSRLRSDDTAVYYCARARDIAALGLGAFDYWGQGTLVTVSS
VL: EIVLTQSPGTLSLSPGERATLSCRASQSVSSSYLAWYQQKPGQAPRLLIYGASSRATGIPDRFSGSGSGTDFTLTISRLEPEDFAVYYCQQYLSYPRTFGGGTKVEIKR
notes: IgG format; also called Antibody B

Kd [10]: 0.00617 nM
Kd (Human Activin A Fc [11]): 0.309 nM
Kd [12]: 0.00981 nM
koff [12]: 2.27e-05 s⁻¹ and 1.58e-05 s⁻¹
kon [12]: 2.31e+06 M⁻¹ s⁻¹ and 2.56e+06 M⁻¹ s⁻¹
B2: Fab of anti-Activin A antibody Clone B (Fab, V domains shown)
VH: QVQLVQSGAEVKKPGASVKVSCKASGYTFIGYDMHWVRQAPGQGLEWMGVINPSSGGTNYAQKFQGRVTMTRDTSISTAYMELSRLRSDDTAVYYCARARDIAALGLGAFDYWGQGTLVTVSS
VL: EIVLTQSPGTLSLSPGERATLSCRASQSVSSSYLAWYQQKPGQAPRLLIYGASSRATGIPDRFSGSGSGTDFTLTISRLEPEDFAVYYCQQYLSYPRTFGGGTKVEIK
notes: Fab format; only VH and VL are tied to the clone; also called Fab of Clone B

From US20260265358A1 (BYOMASS, published 2026)
